Laboratory results as given in patent US20240390486A1.

T1: peanut (Arachis hypogaea) allergen Ara h 6 (Arachis hypogaea) (UniProt Q647G9)
T1 sequence: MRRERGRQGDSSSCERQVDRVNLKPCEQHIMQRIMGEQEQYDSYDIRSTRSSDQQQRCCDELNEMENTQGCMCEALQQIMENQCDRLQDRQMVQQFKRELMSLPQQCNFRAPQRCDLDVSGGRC


Target: T1, peanut (Arachis hypogaea) allergen Ara h 6 (Arachis hypogaea)
Assay: EC50 of IgE mAb on allergen, Table 1; method not stated

Row | EC50 | Binder
1 | 5 ng/mL | human IgE mAb 1A8 (antibody, from a related filing, V domains shown) VH: QLQLQESGPGLVKPSETLSLTCSVSDDSISTPSYFWTWIRQPPGKGLEWIASIYYTGTTYYNPSLKSRVTLSVDTPKRQFFLRLSSVTAADTAVYYCARYLDYVWLRAFDVWGQGAMVTVSS VL: EIVLTQSPATLSLSPGERATLSCRASPSVGRFLAWYQQKPGQAPRLLIYDASQRATDIPARFSASGSGTDFTLTIDSLEPEDFAIYYCQHRSNWPVTFGGGTRVEIK
2 | 3.2 ng/mL | human IgE mAb 21C10 (antibody, from a related filing, V domains shown) VH: EVQLVESGGGLVKPGGSLRLSCAASGFILSRSSMSWVRQAPGKGLEWVSYISSTSSHIYYADSLKGRFTISRDNTENSVYLQMSSLRAEDTGVYYCARKTNGAWFLDLWGRGTLVTVSS VL: QSVLTQPPSVSGAPGQRVTISCTGSSSNIGAGSDVHWYQQFPGSAPHVLIYGNNQRPSGVPDRFSASKSGTSASLAITGLQADDEADYYCQSYDYDLSGSWVFGGGTKLTVL

Continued, binder first:

Row | Binder | EC50
3 | human IgE mAb 15C2 (antibody, from a related filing, V domains shown) VH: QVQLVQSESELKKPGASVKISCKASGYDLTKYAMNWVRQAPGQGLEWMGWINTNTAKPTYAQGFTGRFVFSLDTSVRTIYLEISNLKAEDTAIYYCSRDGSGASWGQGTLVTVSS VL: DIQMTQSPSTLSASVGDRVTITCRASQNIGRWLAWHQQKPGKAPKVLITKASNLESGVPSRFTGSGSGTDFTLTITSLQPDDFATYYCQQYTTYSGTFGQGTRVEIK | 31.5 ng/mL
4 | human IgE mAb 26A5 (antibody, from a related filing, V domains shown) VH: QVQLVQSGSELRKPGASVKVSCKASGYTFTKYGMNWVRQAPGQGLEWMGWINTNTAKPTYAQDFTGRFVFSLDTSVNTAYLEISGLKAEDTAVYYCATDGSEGSWGQGTLVTVSS VL: DIQMTQSPSTLSASVGDRVTITCRASQSIGTWLAWHQQKPGTAPKVLIYKASNLKSGVPSRFSGSGSGTDFTLTISSLQPDDVATYYCQQYNTYSGTFGQGTRVEIK | 10.1 ng/mL
5 | human IgE mAb 20M10 (antibody, from a related filing, V domains shown) VH: EVQLVESGGGLVKPGGSLRLSCTVSGFTFNMHSMNWVRQAPGKGLEWVSFISSTSTYIYYPDSVKGRFTVSRDNSKNSLYLQMTSLRAEDTAVYYCVRRGRGGAARALDNWGQGTLVTVSS VL: SYVLPQTPSLSVAPGQTATISCGGNNTGSKSVHWYQQKPGQAPLLVVYDNSDRPSGIPERFSGSNSGNTATLTLSRVEAEDEADYYCQVWDSTIDHVIFGGGTKLTVL | 5.3 ng/mL
6 | human IgE mAb 8F3 (antibody, from a related filing, V domains shown) VH: QLQLQESGPGLVKPSETLSLTCTVSDASIDTPSYFWSWIRQPPGKGLEWIGSIYYTGNKYSNPSLKSRVTMSVDTPKRQFSLRLSSVTAADTAVYYCARYVDYVWLRAFDIWGQGTRVTVSS VL: EIVLTQSPATLSLSPGERATLSCRASPSAGRFLAWYQQRPGQAPRLLIYDASKRATDTPARFSGSGSGTDFNLTIASLEPEDFAVYYCQHRSNWPLTFGGGTKVEIK | 3.8 ng/mL
